B1: KLHL20 (parent)
chain: YQDMIYAVGGRDDTTELSSAERYN
B2: TRIM43 (parent)
chain: FCDMDKSLLCLLCSNSQEHGAHKH

Variants of: B1
Assay: protein stability index of a GFP-peptide fusion (GPS, HEK-293T) (PSI 1-6); higher = more stable
Conditions: c terminus: a fixed tail appended
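Note: lentivirally expressed fusions sorted by FACS into six bins by GFP to DsRed ratio, PSI derived from sequencing read proportions per bin multiplied by bin number.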

Protein stability index, by site and new letter:
Y1: C 4.21, A 4.78

Variants of: B2
Assay: as above
Conditions: c terminus: a fixed tail appended

Protein stability index: each site, then its substitutions
H19: C 2.03, D 2.38, V 1.59, Q 1.41, K 2.11, N 1.75, G 2.18, P 2.05, S 2.01, T 1.83, F 1.67, R 2.03, Y 1.91, E 1.98, A 1.91, W 1.51, L 1.42, M 2.03, I 1.87
S16: I 1.57, Y 1.79, K 2.04, P 2.65, Q 2.13, V 2.23, M 2.3, H 2, W 1.75, R 2.12, L 2.15, N 2.06, T 2.07
H22: N 1.75, G 1.78, Y 1.87, S 1.73, F 2.17, Q 1.91, C 2.59, I 2.17, L 1.61, W 1.45, A 1.77, D 2.11, E 1.53, M 1.48, R 1.84, K 1.73, V 1.7, T 1.79, P 1.69
K23: N 1.89, R 2.18, I 2.17, W 1.94, M 1.91, E 2.05, Y 1.43, G 1.53, T 2.02, D 2.4, H 2.13, F 1.82, Q 1.64, P 2.06, A 2.06, S 2.25, C 1.82, V 2.06, L 1.63
H24: G 1.77, V 2.04, Q 2.22, M 1.48, F 1.43, W 1.84, K 1.89, Y 1.36, L 1.53, E 1.65, R 1.86, A 1.72, P 1.69, D 2.18, S 1.58, C 2.4, T 1.66, I 1.7, N 2.26
E18: G 1.78, S 1.63, T 1.68, V 2.28, F 1.75, A 2.12, L 1.7, I 1.4, D 2.11, C 2.3, P 1.83, K 1.86, N 1.87, H 1.81, M 1.83, W 1.98, Q 1.93, R 1.86, Y 1.71
G20: S 1.99, M 1.47, Q 1.95, Y 2.28, E 2.36, C 2.59, D 2.19, V 2.35, I 1.66, W 1.56, F 1.67, L 1.74, T 2.12, H 1.92, K 1.93, A 1.89, N 2.03, P 2.27, R 1.9
Q17: E 2.1, T 1.61, F 2.05, P 1.7, A 1.85, M 1.58, C 2.22, V 1.67, G 1.84, S 1.55, D 1.78, L 1.63, W 1.74, H 1.76, R 1.6, Y 2.19, I 1.78, K 2.13, N 1.51
A21: G 2.26, Y 1.48, S 2.02, E 1.83, N 1.84, P 2.22, W 1.54, M 2.33, I 1.47, K 1.98, V 1.85, D 2.08, F 2.1, Q 2.23, H 1.98, T 2.07, R 2.16, L 1.97, C 2.38
